Measurements as given in patent US20210388087A1.

Target: Human CD137 ECD (human)
Experiment: single mutant vs template dBBDu183H

Chain of Human CD137 ECD (human) (chain, as listed by the source limits assumed): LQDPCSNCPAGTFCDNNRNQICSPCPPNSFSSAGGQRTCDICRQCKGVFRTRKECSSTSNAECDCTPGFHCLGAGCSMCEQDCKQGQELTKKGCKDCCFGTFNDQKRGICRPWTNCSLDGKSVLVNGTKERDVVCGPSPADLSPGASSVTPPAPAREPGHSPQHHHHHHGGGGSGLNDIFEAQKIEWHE

Binder | fold change of affinity
H183/L072 VH D52aK (antibody, name in Kabat numbering, V domains shown) VH: QVQLVESGGGLVQPGRSLRLSCAASGFTFSNAWMHWVRQAPGKGLEWVAQIKKKGNAYAAYYAPSVKGRFTISRDDSKNSIYLQMNSLKTEDTAVYYCHYVHYASASTVLPAFGVDAWGQGTTVTVSS VL: DIVMTQSPLSLPVTPGEPASISCQASQELVHMNRNTYLHWYQQKPGQAPRLLIYKVSNRFPGVPDRFSGSGSGTDFTLKISRVEAEDVGVYYCAQGTSVPFTFGQGTKLEIK | 0 fold
H183/L072 VH F29R (antibody, name in Kabat numbering, V domains shown) VH: QVQLVESGGGLVQPGRSLRLSCAASGFTRSNAWMHWVRQAPGKGLEWVAQIKDKGNAYAAYYAPSVKGRFTISRDDSKNSIYLQMNSLKTEDTAVYYCHYVHYASASTVLPAFGVDAWGQGTTVTVSS VL: DIVMTQSPLSLPVTPGEPASISCQASQELVHMNRNTYLHWYQQKPGQAPRLLIYKVSNRFPGVPDRFSGSGSGTDFTLKISRVEAEDVGVYYCAQGTSVPFTFGQGTKLEIK | 0 fold
H183/L072 VH M34R (antibody, name in Kabat numbering, V domains shown) VH: QVQLVESGGGLVQPGRSLRLSCAASGFTFSNAWRHWVRQAPGKGLEWVAQIKDKGNAYAAYYAPSVKGRFTISRDDSKNSIYLQMNSLKTEDTAVYYCHYVHYASASTVLPAFGVDAWGQGTTVTVSS VL: DIVMTQSPLSLPVTPGEPASISCQASQELVHMNRNTYLHWYQQKPGQAPRLLIYKVSNRFPGVPDRFSGSGSGTDFTLKISRVEAEDVGVYYCAQGTSVPFTFGQGTKLEIK | 0 fold
H183/L072 VH H35R (antibody, name in Kabat numbering, V domains shown) VH: QVQLVESGGGLVQPGRSLRLSCAASGFTFSNAWMRWVRQAPGKGLEWVAQIKDKGNAYAAYYAPSVKGRFTISRDDSKNSIYLQMNSLKTEDTAVYYCHYVHYASASTVLPAFGVDAWGQGTTVTVSS VL: DIVMTQSPLSLPVTPGEPASISCQASQELVHMNRNTYLHWYQQKPGQAPRLLIYKVSNRFPGVPDRFSGSGSGTDFTLKISRVEAEDVGVYYCAQGTSVPFTFGQGTKLEIK | 0 fold

Other lines, results leading:

fold change of affinity | Binder
0 fold | H183/L072 VH N31R (antibody, name in Kabat numbering, V domains shown) VH: QVQLVESGGGLVQPGRSLRLSCAASGFTFSRAWMHWVRQAPGKGLEWVAQIKDKGNAYAAYYAPSVKGRFTISRDDSKNSIYLQMNSLKTEDTAVYYCHYVHYASASTVLPAFGVDAWGQGTTVTVSS VL: DIVMTQSPLSLPVTPGEPASISCQASQELVHMNRNTYLHWYQQKPGQAPRLLIYKVSNRFPGVPDRFSGSGSGTDFTLKISRVEAEDVGVYYCAQGTSVPFTFGQGTKLEIK
0 fold | H183/L072 VH N53K (antibody, name in Kabat numbering, V domains shown) VH: QVQLVESGGGLVQPGRSLRLSCAASGFTFSNAWMHWVRQAPGKGLEWVAQIKDKGKAYAAYYAPSVKGRFTISRDDSKNSIYLQMNSLKTEDTAVYYCHYVHYASASTVLPAFGVDAWGQGTTVTVSS VL: DIVMTQSPLSLPVTPGEPASISCQASQELVHMNRNTYLHWYQQKPGQAPRLLIYKVSNRFPGVPDRFSGSGSGTDFTLKISRVEAEDVGVYYCAQGTSVPFTFGQGTKLEIK
0 fold | H183/L072 VH Q50R (antibody, name in Kabat numbering, V domains shown) VH: QVQLVESGGGLVQPGRSLRLSCAASGFTFSNAWMHWVRQAPGKGLEWVARIKDKGNAYAAYYAPSVKGRFTISRDDSKNSIYLQMNSLKTEDTAVYYCHYVHYASASTVLPAFGVDAWGQGTTVTVSS VL: DIVMTQSPLSLPVTPGEPASISCQASQELVHMNRNTYLHWYQQKPGQAPRLLIYKVSNRFPGVPDRFSGSGSGTDFTLKISRVEAEDVGVYYCAQGTSVPFTFGQGTKLEIK
0 fold | H183/L072 VH W33R (antibody, name in Kabat numbering, V domains shown) VH: QVQLVESGGGLVQPGRSLRLSCAASGFTFSNARMHWVRQAPGKGLEWVAQIKDKGNAYAAYYAPSVKGRFTISRDDSKNSIYLQMNSLKTEDTAVYYCHYVHYASASTVLPAFGVDAWGQGTTVTVSS VL: DIVMTQSPLSLPVTPGEPASISCQASQELVHMNRNTYLHWYQQKPGQAPRLLIYKVSNRFPGVPDRFSGSGSGTDFTLKISRVEAEDVGVYYCAQGTSVPFTFGQGTKLEIK
